Results reported in patent US20050112108.

Target: GAAP-1 (Homo sapiens) (UniProt P15822)
Assay: cell_activity
Conditions: luciferase vs empty vector

Chain of GAAP-1 (Homo sapiens) (P15822 other isoform, or with tags, fused parts or gaps): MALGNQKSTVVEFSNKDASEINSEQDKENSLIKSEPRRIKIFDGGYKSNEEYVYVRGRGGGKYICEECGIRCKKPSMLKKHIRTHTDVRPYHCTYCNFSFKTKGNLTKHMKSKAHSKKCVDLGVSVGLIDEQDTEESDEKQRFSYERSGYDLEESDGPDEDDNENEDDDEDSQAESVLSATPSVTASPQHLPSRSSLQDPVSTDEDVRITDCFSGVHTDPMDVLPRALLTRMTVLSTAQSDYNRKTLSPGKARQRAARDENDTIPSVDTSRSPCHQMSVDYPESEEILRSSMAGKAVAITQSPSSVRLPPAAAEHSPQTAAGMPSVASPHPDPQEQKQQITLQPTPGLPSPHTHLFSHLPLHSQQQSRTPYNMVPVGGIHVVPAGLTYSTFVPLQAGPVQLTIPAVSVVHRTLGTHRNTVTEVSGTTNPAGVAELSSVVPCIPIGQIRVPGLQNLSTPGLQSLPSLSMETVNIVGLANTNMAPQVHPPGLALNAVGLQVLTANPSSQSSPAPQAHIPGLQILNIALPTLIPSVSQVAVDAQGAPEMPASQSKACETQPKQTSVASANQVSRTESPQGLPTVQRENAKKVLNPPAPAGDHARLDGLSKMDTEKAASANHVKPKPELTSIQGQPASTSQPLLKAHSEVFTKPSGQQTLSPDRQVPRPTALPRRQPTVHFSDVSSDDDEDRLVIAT

| Substance | activity (K562 in text, U937 in figure legend) | activity |
| --- | --- | --- |
| p53 promoter luciferase | 2.5 fold | – |
| IPCS-SV40 chimeric promoter | – | 2.5 fold |
| IRF1 promoter luciferase | – | 2.5 fold |
